Results published in the supplement of paper PMC10126150.
± gives the standard deviation of the averaged measurements.

Test system: ATP
Assay: switch fluorescence ratio, 500 uM ATP over buffer (Cy3 cluster intensity, sum of 5 cycles each) (fold (ratio)); higher = stronger signal-on switching upon ATP binding; sequences stand for … in TCGTCGGCAGCGTCAGATGTGTATAAGAGACAGTTTTTTTTTTTTTTTTTTTTTTTTT…TC
Conditions: aptamer strand: ATP DNA aptamer (quencher-CACCTGGGGGAGTATTGCGGAGGAAGG + anchor), 100 nM annealed; ATP concentration: 500 uM
Summary of the method: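 After annealing to 100 nM quencher-labelled ATP aptamer, Cy3-labelled switching-strand clusters on a modified Illumina MiSeq flow-cell were imaged in selection buffer. A second image followed after 15 min with 500 uM ATP at 22 °C, and five such buffer/ATP cycles were done, each separated by NaOH stripping and re-annealing. The fluorescence ratio, averaged per switch-domain sequence, is summed target-cycle over summed buffer-cycle Cy3 intensity per cluster, with clusters outside 100-1000 RFU excluded.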
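Also: ATP exposure 15 min at 22 °C before imaging.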

Sequence | switch fluorescence ratio
AGGGTTATTG | 1.01 ± 0.047
GAATGTGGGG | 0.982 ± 0.019
GGGTCAGGTA | 0.996 ± 0.03
CGGAAGCGGG | 1.02 ± 0.038
GACAATTTCT | 1.02 ± 0.072
ATGCTGAGGA | 0.977 ± 0.042
GCTGAAAGGG | 0.9903 ± 0.0067
TTTCGAACGG | 1.03 ± 0.028
TCTTTGTCGG | 0.977 ± 0.029
TATTAGTTTG | 0.997 ± 0.024
ATTTATGTTT | 0.979 ± 0.03
GGGGGTTGTG | 1 ± 0.036
GGGGTACGAT | 1.02 ± 0.027
TAGGATATTT | 1 ± 0.02
GGGGCGCGGT | 1.025 ± 0.0058
TAATTTGTGT | 1.01 ± 0.014
GGGAAGGAAG | 1.04 ± 0.04
GGGAAAACGC | 1.02 ± 0.015
AACTTTATTT | 0.992 ± 0.018
CTGTGCGTGG | 0.973 ± 0.029
GGGGAGTGAC | 1.025 ± 0.0086
GTGTGGGT | 1.002 ± 0.0028
ATACTCAGCC | 1.14 ± 0.041
TTAGGGTCCC | 1.02 ± 0.016
TCGCAGGCCT | 1.033 ± 0.003

Sequence | switch fluorescence ratio
TTTGGTACTT | 0.986 ± 0.039
TTAAAAAGAG | 0.999 ± 0.042
TTTTAAAGTG | 0.993 ± 0.034
ACACAGGTAT | 1.12 ± 0.059
AGAGGTTATG | 0.986 ± 0.041
TTAGGGATCT | 0.9904 ± 0.0042
ATTTATGTAA | 0.987 ± 0.012
CGTTTTTGAA | 0.99 ± 0.025
ATGTTTTTAG | 0.991 ± 0.018
GCCTGAGATG | 1.03 ± 0.017
GTGTCAATTA | 1.01 ± 0.021
AAGTGAGGGG | 0.998 ± 0.028
CATGACGGTT | 0.978 ± 0.046
ATTTGAAGGT | 1.01 ± 0.018
GGTGTTTATC | 1 ± 0.014
TTGTTTTTAT | 0.992 ± 0.03
AATAAGGTAT | 0.965 ± 0.014
GCTTTTTAAA | 0.95 ± 0.016
GTTTATTGGC | 0.995 ± 0.019
GGTTCCAAGC | 1.06 ± 0.04
CCTGGGGCCA | 1.03 ± 0.038
GAGGGTAGTT | 1.031 ± 0.0055
GGGGGGTCCC | 0.9957 ± 0.0037
GGGGTGGGAG | 1.01 ± 0.041
AAAGTGGTCG | 1.1 ± 0.039

Sequence | switch fluorescence ratio
TCGTAATAGG | 1.118 ± 0.011
GACCTAAGGT | 0.988 ± 0.035
TGTTATATGC | 1 ± 0.019
TCAATAGAAT | 1.06 ± 0.14
GTGTGACAAA | 1 ± 0.037
TTTTAGTATT | 0.9973 ± 0.0091
GGACGTTTTG | 0.98 ± 0.012
CAGTAGGGGG | 0.977 ± 0.068
GGGGTGTGAC | 1.022 ± 0.0026
TACTTAAGTG | 1.02 ± 0.047
TTTTGAGTTC | 1.035 ± 0.0057
GCACGCAGGA | 1.054 ± 0.006
GTTTTAGCTG | 0.986 ± 0.059
TTTTGGATTT | 0.993 ± 0.018
AGTGCGTTTG | 1 ± 0.038
GGTGATGGGC | 1.01 ± 0.062
AAGGGCGCTC | 0.975 ± 0.032
GTAATCATTT | 0.9667 ± 0.0093
TGGATTTTGC | 0.989 ± 0.029
AGCCGTTGAG | 0.9916 ± 0.0061
CCATATTGTG | 1.02 ± 0.016
TAAAGGCACG | 1.03 ± 0.07
ATAACAGAGG | 1.04 ± 0.013
TTCGTTTACA | 1.01 ± 0.028
TGAGGGGGCT | 0.9862 ± 0.0034

Sequence | switch fluorescence ratio
GATATATGGT | 0.9833 ± 0.0077
TACTGGTGGT | 0.992 ± 0.016
TTCGGGAACT | 1 ± 0.038
GCCGGTAGGG | 0.98 ± 0.031
CCTTTGTGAT | 1.499 ± 0.0089
TTGACGGGAG | 0.997 ± 0.027
ATTTGGGCTT | 1.05 ± 0.12
CCAGAGGGTG | 1.45 ± 0.52
GATCGTTGTC | 0.988 ± 0.027
TGAAGGGTGA | 1.007 ± 0.0094
TAGAAAAGCA | 0.997 ± 0.024
TTCATGCCTG | 1.12 ± 0.092
TCGGGTTCTT | 1.02 ± 0.027
TTTTCTCTCA | 1.01 ± 0.02
GGGGGGTCT | 1.09 ± 0.051
ATTTATTTGT | 0.986 ± 0.03
CTTTTTAACA | 0.9742 ± 0.0062
TTTATCGGGC | 0.989 ± 0.019
TGTTAGGGGT | 1 ± 0.075
TGGATTATTG | 0.9445 ± 0.0019
TTATGGTGGT | 0.973 ± 0.027
TGGGCTCCTT | 1 ± 0.043
AGAGTCGTGC | 0.997 ± 0.051
GACTAGTATA | 1.01 ± 0.04
TTAATTTTA | 1.014 ± 0.0011

Sequence | switch fluorescence ratio
GGGATTTAGG | 0.997 ± 0.035
TAGTATTGTA | 1 ± 0.039
AGTGGGGGAA | 0.985 ± 0.027
CATGGGGCGC | 1.012 ± 0.0071
AGTTTGTGTC | 0.965 ± 0.12
GACTAATTGG | 0.957 ± 0.013
CGGTTTTTAG | 1.01 ± 0.044
TGGTGTAAT | 1 ± 0.03
GACCTGTAAT | 1.025 ± 0.0013
TTAAGTGTAG | 1 ± 0.021
GTTGACGCTA | 1.07 ± 0.024
ATAGAGTTAG | 0.982 ± 0.011
GGCTGCACGG | 1.013 ± 0.01
TGCCTCAGGG | 1.08 ± 0.021
CGTAGTGAAG | 1.03 ± 0.037
TATACGATTG | 0.985 ± 0.013
GAGGGCCTGA | 1.01 ± 0.012
TTACCGGGAT | 1.02 ± 0.031
CAGACGGTAC | 3.08 ± 0.089
TTACTTTTCG | 1.03 ± 0.057
ACTCAGTTGT | 1.06 ± 0.059
GGGGCGTCAG | 0.97 ± 0.013
TTTTGGCCAT | 0.995 ± 0.082
AGGTTATGTG | 0.999 ± 0.037
ACAGTTGGTT | 0.99 ± 0.06

Sequence | switch fluorescence ratio
CACGGCAGGG | 1.01 ± 0.012
GAGTTAGTTG | 0.987 ± 0.093
AAAATTGAAA | 0.988 ± 0.073
CGGGCAGTTG | 0.9992 ± 0.0071
CATCGTGGTA | 1.04 ± 0.11
GGATGTGGGT | 1.011 ± 0.0037
TCGGGATACT | 1.86 ± 0.32
TGTGTGGGGT | 0.975 ± 0.021
CCGGGGTCGA | 1.57 ± 0.77
ACAGGAGTTT | 0.999 ± 0.01
CATTTGAAGA | 1.01 ± 0.019
TTGAATTTTC | 1.02 ± 0.061
GATTTTAGAG | 0.9809 ± 0.003
CTAAAACTTG | 1.14 ± 0.13
AAGTCTGTTT | 1.03 ± 0.028
TAGCTTCTGC | 0.907 ± 0.063
TCTTGTGAGG | 1.04 ± 0.13
GGGGGTTGAC | 1.01 ± 0.027
ACCAAGTATC | 1.04 ± 0.036
GGAGAGTCCG | 1.03 ± 0.036
AGAGTCAGCA | 1.02 ± 0.021
TATCGGGATT | 1.02 ± 0.026
CAGTAGAGG | 0.979 ± 0.019
CAGAGGTATG | 1.01 ± 0.028
AAGGGCAGGG | 1.03 ± 0.029

Sequence | switch fluorescence ratio
TTAACCGGGG | 1.13 ± 0.16
GGGTTTGCGA | 1.02 ± 0.048
TTTTGCACCG | 1.02 ± 0.053
TGCGCCAACT | 1.06 ± 0.011
AGGGAGGAGC | 0.923 ± 0.045
GGACTAGGAG | 1.05 ± 0.012
GAGCATTCCG | 1.003 ± 0.0051
TGTGGGGTTT | 1 ± 0.057
TTTTGAAATA | 0.997 ± 0.017
TTTAGTCGTA | 1.01 ± 0.021
CAATGAACAC | 1.04 ± 0.031
GAAGGCATGG | 1.03 ± 0.015
AAATAGTCTG | 0.972 ± 0.017
GTTGTTTTTT | 0.988 ± 0.036
CTGGGCAGGG | 1.02 ± 0.055
GTTAATGGGT | 0.98 ± 0.047
AATTCAGGGG | 1.07 ± 0.069
AACAACATAG | 1.02 ± 0.036
GTTGGCGTTT | 1.02 ± 0.08
TAATTTGTCG | 0.982 ± 0.023
CAAAAAATAC | 2.23 ± 1.7
CGATGAGGGT | 1.01 ± 0.029
AGAAAGGGTG | 1.14 ± 0.074
AAATTAAGGG | 1.02 ± 0.03
AGCGGGATGC | 1.03 ± 0.028

Sequence | switch fluorescence ratio
TTCCCATGGG | 1.02 ± 0.027
AAGGCGGCGG | 0.991 ± 0.034
AAATATATAT | 0.994 ± 0.044
GCGAGTGTGA | 1 ± 0.036
CTATGGGATG | 0.992 ± 0.039
TTCTGTTTTA | 1.05 ± 0.021
GGTTATTTGA | 0.974 ± 0.028
TTGTGAGCAA | 1.33 ± 0.11
TTTGTAATTG | 1.008 ± 0.01
TGTGTTTTT | 0.992 ± 0.038
TGTTATAAAC | 1.02 ± 0.017
TTATATTTTG | 0.998 ± 0.017
TTTGTGGCTT | 1.38 ± 0.65
GAAGGGCTGG | 0.972 ± 0.022
CAAGAGGGTG | 1.11 ± 0.15
CCTCTCCGTA | 1.32 ± 0.083
TGGTCGGTCT | 1.07 ± 0.074
TTACTGATGG | 0.99 ± 0.033
AATGGATGTT | 1.05 ± 0.12
TAAGAGTACT | 1.008 ± 0.0019
AATGTTATTG | 0.99833 ± 0.00099
CAGAGTTTTA | 1.02 ± 0.015
GAAACTGCTG | 1.01 ± 0.029
TCCAAGGGCA | 1.01 ± 0.015
GGATGGGGAA | 0.998 ± 0.024
